In article PMC8892091 (The Journal of Biological Chemistry, 2022):

B1: ZMYND11 peptide (V71 to K151) (domain or fragment, human, UniProt Q15326 71-151, looked up)
chain: VGCKGSKAGIEQEGYWLPGDEIDWETENHDWYCFECHLPGEVLICDLCFRVYHSKCLSDEFRLRDSSSPWQCPVCRSIKKK
B2: ALKBH6 (crystallised, ALKBH6∙Mn2+∙α-KG; holo-ALKBH6) (enzyme, human, UniProt Q3KRA9 1-238, looked up)
chain: MEEQDARVPALEPFRVEQAPPVIYYVPDFISKEEEEYLLRQVFNAPKPKWTQLSGRKLQNWGGLPHPRGMVPERLPPWLQRYVDKVSNLSLFGGLPANHVLVNQYLPGEGIMPHEDGPLYYPTVSTISLGSHTVLDFYEPRRPEDDDPTEQPRPPPRPTTSLLLEPRSLLVLRGPAYTRLLHGIAAARVDALDAASSPPNAAACPSARPGACLVRGTRVSLTIRRVPRVLRAGLLLGK

Columns and labels:
His-tag labeled ALKBH6 = His-tag labeled ALKBH6 (human, UniProt Q3KRA9 1-238, fluorescent label on the His-tag (His-tag labeling kit RED-tris-NTA)); experiment: MST
crystal structure = target: the molecule itself; experiment: crystal structure

Binder | fold higher binding affinity than ALKBH6 itself (His-tag labeled ALKBH6) | binding result (crystal structure)
B1 | 3.5 fold | –
B2 | – | binds
